Measurements taken from article PMC5704366.

Molecular target: mononucleosome assembled with an octamer lacking the H4 tail (human) (UniProt P0C0S8)
Assay: pull-down

“HIV-1 integrase, wild type (from UniProt P12497 1148-1435) (enzyme)” was tested, and the percent less efficient binding than to native MN was 50 to 60%.
